This is an account of results in PMC7643339.

Data set [1] concerns the target mouse TLR9 ectodomain, uncleaved (without proteolytic activation) (mouse) (UniProt Q9EQU3). Kind of data set: SEC; Superdex 200 10/300, 10 mM Tris pH 7.4, 0.15 M NaCl, no oligonucleotide; last step of the purification. Background: In gel filtration, larger molecules generally elute earlier.
Data set [2] concerns the target T1, mTLR9-ECD, GluC-cleaved (mouse, UniProt Q9EQU3 26-818).
T1 sequence: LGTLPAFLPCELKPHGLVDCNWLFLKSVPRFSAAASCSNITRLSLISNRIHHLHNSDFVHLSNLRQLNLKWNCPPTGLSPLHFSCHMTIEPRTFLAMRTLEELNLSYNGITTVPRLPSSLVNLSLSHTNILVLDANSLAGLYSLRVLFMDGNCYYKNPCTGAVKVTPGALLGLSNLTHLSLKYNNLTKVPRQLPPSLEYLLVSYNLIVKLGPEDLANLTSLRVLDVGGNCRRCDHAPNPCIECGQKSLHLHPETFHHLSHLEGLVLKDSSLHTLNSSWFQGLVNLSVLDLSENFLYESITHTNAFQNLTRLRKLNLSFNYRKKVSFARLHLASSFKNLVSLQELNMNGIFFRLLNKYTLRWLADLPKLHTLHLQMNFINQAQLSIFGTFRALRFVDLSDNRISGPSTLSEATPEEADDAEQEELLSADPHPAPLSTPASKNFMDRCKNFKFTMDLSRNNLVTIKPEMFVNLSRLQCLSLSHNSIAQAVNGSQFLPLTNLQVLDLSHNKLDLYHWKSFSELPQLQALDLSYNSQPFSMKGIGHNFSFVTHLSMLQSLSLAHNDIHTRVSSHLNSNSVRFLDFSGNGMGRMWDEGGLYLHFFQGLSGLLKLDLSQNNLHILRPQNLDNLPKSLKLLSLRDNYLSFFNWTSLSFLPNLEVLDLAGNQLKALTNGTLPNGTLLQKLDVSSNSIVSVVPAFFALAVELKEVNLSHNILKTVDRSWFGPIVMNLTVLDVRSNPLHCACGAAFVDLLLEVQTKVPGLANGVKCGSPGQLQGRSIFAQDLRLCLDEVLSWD
Put plainly: fluorescence anisotropy; apparent, 1:1 fit; SI text gives 9.2 nM; Anisotropy: 2 or 5 nM Alexa 488 oligo, protein to 100 nM; competition in 10 mM MES pH 6.0, 0.15 M NaCl, room temperature (direct titration buffer not separately). For orientation: In fluorescence polarisation assays a small probe gives low polarisation when free and higher when bound to something large.

Data set [3] deals with T1, mTLR9-ECD, GluC-cleaved. Put plainly: competition; vs Alexa 488 1668-12mer; Anisotropy: 2 or 5 nM Alexa 488 oligo, protein to 100 nM; competition in 10 mM MES pH 6.0, 0.15 M NaCl, room temperature (direct titration buffer not separately).
In data set [4] the target is T1, mTLR9-ECD, GluC-cleaved. Put plainly: competition; Cheng-Prusoff; vs Alexa 488 1668-12mer; Anisotropy: 2 or 5 nM Alexa 488 oligo, protein to 100 nM; competition in 10 mM MES pH 6.0, 0.15 M NaCl, room temperature (direct titration buffer not separately).
The target in data set [5] is T1, mTLR9-ECD, GluC-cleaved. Put plainly: fluorescence anisotropy; apparent, 1:1 fit; Anisotropy: 2 or 5 nM Alexa 488 oligo, protein to 100 nM; competition in 10 mM MES pH 6.0, 0.15 M NaCl, room temperature (direct titration buffer not separately).
Data set [6] addresses T1, mTLR9-ECD, GluC-cleaved. Put plainly: fluorescence anisotropy; 1:1 fit; Anisotropy: 2 or 5 nM Alexa 488 oligo, protein to 100 nM; competition in 10 mM MES pH 6.0, 0.15 M NaCl, room temperature (direct titration buffer not separately).
In data set [7] the target is T2, mTLR9-ECD W96A/Y132A (site A mutant) (mouse, UniProt Q9EQU3 26-818, W96A;Y132A).
T2 sequence: T1 sequence with W71A, Y107A
Put plainly: mass photometry; a fraction dimerizes with ligand; Anisotropy: 2 or 5 nM Alexa 488 oligo, protein to 100 nM; competition in 10 mM MES pH 6.0, 0.15 M NaCl, room temperature (direct titration buffer not separately).

The target in data set [8] is T3, mTLR9-ECD E617A/H642A (site B mutant) (mouse, UniProt Q9EQU3 26-818, E617A;H642A).
T3 sequence: T1 sequence with E592A, H617A
Put plainly: fluorescence anisotropy; 1:1 fit; reports site A (KA); Anisotropy: 2 or 5 nM Alexa 488 oligo, protein to 100 nM; competition in 10 mM MES pH 6.0, 0.15 M NaCl, room temperature (direct titration buffer not separately).

For another data set, the target named is T4, mTLR9-ECD, uncleaved (mouse, UniProt Q9EQU3 26-818).
T4 sequence: T1 sequence
Put plainly: fluorescence anisotropy; 1:1 fit; uncleaved; Anisotropy: 2 or 5 nM Alexa 488 oligo, protein to 100 nM; competition in 10 mM MES pH 6.0, 0.15 M NaCl, room temperature (direct titration buffer not separately).

Numbering of substitutions follows the chain as printed.

Broadly, the stoichiometry N is the number of molecules, sites or subunits per partner or assembly. Molecule “mouse TLR9 ectodomain, uncleaved (without proteolytic activation) (from UniProt Q9EQU3 26-818) (domain or fragment)” had a stoichiometry N in [1] of 2. Take CATGACGTTCCT (ssDNA) [1668-12mer (Alexa 488)]: the Kd with mTLR9-ECD, GluC-cleaved [2] was 11 nM.

A word on the IC50: it is the point on the concentration scale where inhibition reaches its midpoint. Read a high IC50 as a need for much substance. In general, Ki refers to a measure of affinity in units of concentration, obtained from inhibition or displacement. Low readings indicate higher affinity, high ones lower affinity. As to CATGACGTTCCT (ssDNA) [1668-12mer, unlabeled], in the data set with mTLR9-ECD, GluC-cleaved [3], the IC50 was ~10 nM. In the data set with mTLR9-ECD, GluC-cleaved [4], this molecule gave an inhibition constant Ki of 8 nM. On to TCCTTTCGTTTTTTTTTTTTTTT (ssDNA) [minM (Alexa 488)], for which the Kd with mTLR9-ECD, GluC-cleaved [5] was 3.2 nM. CCTGGATGGGAA (ssDNA) [4084 (printed 4048 in Table 1; Alexa 488)] displayed a Kd with mTLR9-ECD, GluC-cleaved [6] of 29 nM. With TCCATGACGTTCCTGATGCT (ssDNA) [1668, unlabeled], the binding result in [7] is listed as “binds”. In the case of TCCATGACGTTCCTGATGCT (ssDNA) [1668 (Alexa 488)], the Kd came out at 2.8 nM with mTLR9-ECD, GluC-cleaved [5]; 40 nM in data set [8]; 12 nM with mTLR9-ECD, uncleaved.
